Experiment: protease stability score; higher = more stable; yeast display proteolysis, trypsin and chymotrypsin;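 further: relative to predicted unfolded state with 0 unfolded-like and 1 meaning tenfold more protease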

Sequence | protease stability score
REDEEQMSRFIKEMIHLLRTGDEDRLHELIDPHTRLDFDGKEIHGREEWSQFLKEIRFRRFEVKDFEIVNGVANVDGKMHGEFDGQRFTTRVHIYNVKINGRWVHKWEEIG | 1.32
REDEEWLERLLRIIEKAMRTGDEQLTKELFDPNVRLEVGDKIIIGWEELTKIMHEMRVRDSRIHRVRTVGDKVEADTTVNGEIDGREFETEVRIEMLKVDGQWVVDKVHFK | 1.89
REDEKFRDYATHWLEKYVRTGDENLMEELIDPDVRVHVNGQENHGMDEMRKWMLELRIEHIIIRRIEIHVYDGVIEINIDSETRVNFNGRKIRTKVHIHTETRKIDGRWSISHLELRFK | 1.07
REDEKLFEEVLRELVKWLTTGDEKQMRDLFDPNARREVNGVEVHGWEEFLRHVREDRKRYDHVKDIEIHHIDIQGDKLEINVTLVGHIDGKEDVIIFTILLRKVNGKWIVKEIQFH | 1.52
REDEQDLRKFVEDLIHSLKTGDEDSTSRLLDPHVRVEIGDKEFVGREDFTRLMVETVRRYDHIRFDLRRVEDIDGKAHIHGHIYIRVNGVWHHKEVEIIIDKINGKWVIRELRVK | 2.33
REDEQLFHEMLRRVIHALLTGDEQILADLLDPRMRIMYDGVSRHGWHDFIEVLRDLGFDHLILKDYRIQGDYVRFHFIIEQGDKHHTVEIHVQIWDGKVEQIVVNYR | 2.04
REDEREAEEFLRKLLHDIRTGDEESISRMIDPHVRVIYNGVEVIGRERALEVFKKFLEEIRIDTYHVHKVDMINGKMHADTRLRWEINGQRDTSTMLIVVEKVNGRWFLHSVVIS | 1.97
REDERISQIAIEIVEHLIRTGDERVESELADPHMKLRINGVEIHGRERVHDWIHRFVTEFGIDRVEARVHDSHVVNGRIYNDTESHINGKNVKMRWIAIKYNGRWIQTMITFE | 1.3
REDKKDAEDIIRWLLRAWHTGDPRDVEKMMDPNTLSDINGQKIHGREDVSRFNEFILRHARVEVDVHSMEVYGNYLHVDERFTLRIGDKEIRTETHIIIIKVNGRWLVQTISYG | 0.782
REDVEDFKRFIELEVHAHETGDEDLLRKLLDPHVRVIIDGVTIVGWKALRDLLERFDHYTIHHMHIEDLRIQGDKIIVDLRLDLIFNYNGRHLRVDSHARIIMIKYNGRWYNHSIEFE | 2.12
REEDEIAENLFRLWIKSFLTGDFNTLRKLMDPHVRIHINGQEIHGREDFVRLLWEEFRRLGAKFHIEIKHLDVQGDKVFSEGTLRIEQGNKKDSKSVLIELIVVDGVITEIRMDVR | 2.25
REEDEQLKRFTDEFIQVQRTGNEDLLREYADPNVKIVVGDKELHGREEMLYVFREIRVHNSELKRMHIIDGRAEVHVTAHVRQGDKVIEVKLHIIIYKIDGRWVIESMQWE | 1.01
REEDERDHRISELLFDLWVTGDWEIFHHLADPNVKANINGQETHGREKIMRIMMRMIHEFGFKHIQLEDSTVINGRVHQQIKVRVGDKSEEFNIHHHVVDGKIKHIHIEVR | 1.36
REEDHRSRHLSELWIHLWETGDEETMKKLADPNMRINVNGQEFHGREQATRHIHEFLEKFKNVRLHVENIRIQGEKILIISRAEVDGQELEIHIELIIVDGRIEEVNLHVYRR | 1.46
REEDKEFEDAVKTILHSFLTGDFDLLIKLLDPNVRIRFENVDLVGWSEYLRRLEEFGVKVHRTKRSDIRYINGVAVVIIDGEMEYGDKKTKVELNFVMQKYDGRWRTQSIHEKEH | 1.12
REEDKRAREDVEEWLRWFLTGDEEHLIKYADPNVRVDYGDKDIHGRNEATRIWREFLKHIRIHHVEVSHIKYVGEKVIVDVRLDGEINGRRVITHVEMEIIVVNGVLKSVHINSR | 1.21
REEEDNAEKFWEEFSKSLLTGDEDHMEELADPNARMRINGREKVGREEVRKELSHLFTHIRLKSIHLKDFKFFDGRLDIDGSLDGHINGKRREIEVHVHLWKVNGRWTLETLKIN | 1.17
REEEEEAKRFLDIITRSILTGDEDSLSELFDPNTQLHYGDKRFVGRERINEVVKQWRIEDVNLHDVEVQGEWAILDTRVDGNFNGKKRNLETRIITEKVNGRWILKRVEIE | 1.35
REEEEEIEEALRQWLTLHETGDFKYLEKLFDPNVKQDVGDKELHGRELFSKFEHELAERIKGVRFRYHYEEIHIFDGRVVLRLDGIWEIGDKSMRVTLIVIMNKFDGRWKLESLHIEYR | 1.24
REEEEEIRFAEEFWMELEKTGDEHKILRMADPNVRVRIGDKHHHGREHLRRVIEWRLEYAGIDKIEVRLRRVTIINGRVHIDGELIVGDKEHRVEIILVKINGRWILHEFEIR | 1.5
REEEEEMEELVRRIIHLLKTGDEREFNRLLDPDARVDDGDWHDHGREAWNKWSEKLRRDAGHENIEFHVRHFEVINGRIIMETKVHIGDKTLDTRLIFVVINGRLTSVRLEIH | 0.037
REEEEESQKATEHQLHSLRTGDWRSIERLLDPNTRMEINGVDSVGREYVLELFRRWLEEAGINHIELKSYEVFNGKLEIHSEVHYDGRTIKVINIVIKVNGRWLLHHVHIEDL | 0.561
REEEEEVKRNAHITVHILLTGDFHHHSRLFDPHVRSEWNGVELHGMEEDLKWWIELVKHLRFKHFEIHDIRVYDGVADNDINEVIKVNGKDFTFKSSIILIIINGQIRELKFVIN | 0.073
REEEEHAEKVVKLMLHWLHTGDEEKFINNADPNVKLQIDGQRIHGWDDWERRMNEKLQRVDYIDNVVIRHIDNQGDKAIFHGELRGIQGDKHFTFHVELRIRVVNGVIHEMEIIIR | 2.05
REEEEHAEYVIRVWERLLETGDEHEVARLLDPEVRLNIDGVDIHGREDIIRWLKHIRIEIEDSDHKRIEVQGEKIHLDGHRKEVIHVGDKKIRREHRIKLELVWIDGKITSLNVVLH | 1.24

Sequence | protease stability score
REEEEHAHRIFEILVRLWLTGDEDTYLNLADPHDLIEIDQGDKRDENHGRESAFHLWEWFLREMRIKRMILRDERVQGEKLEFDVEVRGNINGVDLRFRVHIIIVVINGRFKSSKVILN | 0.759
REEEEHARRLVEMYFHALLTGDEDLLKSLLDPNVKLQIGDKVHVGREELIRSLRELWDKLGIDHITLEEYRIEIQGNKIRLKLYMHLHVNGRLLQVTTDILVDKVDGRWVIQEIRVHEA | 1.91
REEEEHLERVMSLILLIMSTGDFKTLSELFDPHARLRVGDKHLIGWSFVADWIVKFKNMQLRHHRRHVVNGVVEVEDEFRVGDKRFTLRLLFLVVDGVVKEVHIEIEDR | 0.833
REEEEHLKKFIEDHIRDLRTGDEQKVADQADPHVRTRFNGVDYHGREDHMKLMKHIRFEEMRIEDVKVQGDKAHIDSIITIEVDGQRETIKVHIIIVKIDGRWLLKQSHFN | 0.396
REEEEISKNIAELFEHTLRTGDEKLFLKLADPHVKNEQGEFDSVGREEWHRQFREILNKWGVDRIHSQERRFTDYDGRLEMHVEMRFNGKRVEVRMRVEKYDGRWILTELHIRIE | 0.655
REEEELLKKLADHWWENVRTGDERRMRELFDPNTQFVIEVGDKKFTRHGRDELVHSLEHARIHDFHIKDQRPQGDFIEVEGEIDGEIDGRRFRTDVRVWIVIVNGRLKQIHIHVG | 1.15
REEEELMKEIARRVIESHYTGDEDWWLELADPNVQVHVGDKRKVGREHALHLLHIFHKHLGVDHLHLRHVHVQGDWIEIEMDLNINGKIREMRVFVTVIDGRLDSINIDIK | 1.27
REEEENMRHFYKLMEHSLHTGDEDTLRRLFDPDARILIDGREHHGMEFILQLLHHIRLRVHDTKIEDIEHQGEWLHMHTRIDIYYNVDGQEVRVDTNVRLHAHKVDGRWFVRSYERG | 0.748
REEEEQLKHFIEHRLHNFLTGNEERLHHLADPNMRIDINGKELHGREAYIYEFNRLGWEIKHIDIEHLEVQGDKVDVDLRFKGHIDGKTRHIKSKLIVLKVDGKWFDKDYFII | 1.13
REEEERLKDLERVMRELWRTGDEREMSRNADPHVKLSVGDKEFHGRELFTKWASRVDHYDHLIIRDIETQGDKVRMYVETEMDIDGKDVKTESFILAVKIDGRWILRSLELR | 0.387
REEEERVEHLARLVFRALMTGDEDEYKHLADPDDRLILVINGRRQEFHGMEVVLEWLRHLLKEIRIHHSHIHDVKVIGDKVDFDTSVDVEYNGQRHWRKMRVIIIIVNGRYRSVEIILE | 2.26
REEEETLDRAIREMLRNMRTGDEHRMRELMDPNVRAHINGREIHGREEVVRHLVEWLKRVDHIEFKLEHQVVYGEKIDLDTRVTIRVNGVELRHKTHQRVHKIDGKWVLDELEIS | 2.05
REEEEVVREIARRVIKSWITGNEHDMQEFADPHVRIFIGDKEIIGMEILNEILHRIKNITIRINMRHVDVQGDKVDLEGELEIRVNGQTERHDSRHHFDVVNGRIKIIEIQWD | 0.918
REEEEYRHHVLRRWLEIWETGDEEAEAKNVDPNARMHVNGVDLHGRETIIHFLEEYMRKVKGVQERNDKVHLQGEFTHLTGRVLINGRWKEVTIQLLIINGRHHYLRIIIE | 0.898
REEEHAMKSMIDLWIESMNTGDERSISEMADPNAKNRVGDKTFVGMELLSHILFKLVKELGVRIEDHKIHDIKVQGDKIVSHVRLHLKYGDKEEDHETIIYTRKINGRWLIERVEVI | 1.53
REEEHHLEKLARHIVHAILTGDERYLEKLMDPNTRVEIIDGEYRIERHGMHNIVHLLLEIRIHHFEIKRITTYNGQVDIDGEIDGEYGDKRDNRHVEIRFHFVNGRTKSFKVTWR | 1.31
REEEKDEERMVHELMEWHRTGDEKTLNELLDPNARFIINGKHIHGREVFNEEVKRLGFRIEEYHLRRVRIYDGRIEFETEIDGEVNGRRLHIETRFHAIKINGQWRLKHIEFH | 2.5
REEEKDIRDVLKLWKDISRTGDEHLIRRLVDPNARLNFNGREIHGREDVAEFLLRRWRQIDHLEIIDRDVRYQGDKVEFHGHVREKIGDKEETYELEFILVKIDGRWLVHSLHVH | 2.43
REEEKFAIHLVRRVVEYLLTGDEDSLKRLADPNTRIHINGVDRHGMEESYKWWKSEIDHLRHHIVITRMRFIDGVIEVDIRLHSDFDGVRFSWNVHLILLVVDGRIKTDKMIVE | 1.26
REEEKIYHHLTEMWYEMLHTGNEEERERLFDPNTRVNIGDYHFHGREKLLEAYRRWRHMLGIKHYEVDRVEVIGDKVFSQGHSKAENHRLDVRIVIVVWNGRLKETSVDIH | 1.04
REEEKKLEDIVKKLLEAWETGDEDFLIEMADPDTRVEFEAENHHEHRVGWENMIHWTHEVHRHLGVKHLMIDSSTIIGEKVHIDGTMNINGREVKIRIIIEIVDGRVKKIKIIVH | 1.71
REEEKLWEHIFHLFIEDVLTGDEDRLREMLDPNVRLKAEGHDDHGRESMVKFNEELHKEIRFERIHLRRIHIIDGVSFMDVQIDGTVNGKHRSLESEIRIYIVDGRIRMVELRIR | 1.25
REEEKMFTMILEIIKHSLVTGDEDLTRNLVDPNMRLEINGQEVHGREEILRVLLELRVKEMHIDDVKFQGDKAEIDGTLDIEWNGQEDHLKVEIIFRKINGRWHIESIRLE | 1.48
REEEKMMRHIFRLDVILELTGDEEKWKHYADPNVRVIFIFENVHIEHHGRDAWVRLLHHMRIDRIIIHRLRVFENHNQADTFVKGEINGRELDMETHFYVLVINGRRKEVELEVR | 1.46
REEEKNLHTQMRLFAHALWTGDEDEIHRNMDPHVRSDIDGRELVGREWMIRLIEELRIRHVHIRHFHLQGDKLHLDTISHVIVNGVEVDMHTRVDVEKVNGRWLITSIRFD | 1.18

— the NTF2 design screens of Basanta et al. (2020)
